Assays:
[1] = target: PcrV antigen of Pseudomonas aeruginosa (recombinant PcrV) (Pseudomonas aeruginosa); assay: biolayer interferometry, ForteBio Octet
[2] = target: PcrV on Pseudomonas aeruginosa strain PA103 (type III secretion system) (Pseudomonas aeruginosa strain PA103); assay: cell-based or functional assay

For Mab166 Fab, the Kd [1] was 1.4 nM and the IC50 (nM), TTSS-dependent cytotoxicity assay (PA103 killing of P3-X63-Ag8 myeloma cells, propidium iodide flow cytometry) [2] was 53 nM.
